We go through 1 substance from publication PMC6368601.

The pKd is −log10 of the Kd, conventionally taken in molar units.

pKd: −log10 of the molar value.

The target of this experiment is taxol-stabilized microtubules polymerized from bovine brain tubulin dimers (bovine) (UniProt Q6B856). Description: co-sedimentation; 100 nM ISB (WT, MTBM or Δ20) with various concentrations of taxol-stabilized microtubules; BRB80, 1 mM DTT, 50 mM NaCl, 20 uM paclitaxel; 15 min at room temperature; 50% glycerol cushion, 279,000 x g; blot with anti-Borealin; apparent Kd from a one-site specific binding fit of three experiments.

For “ISB^MTBM: INCENP^1-58-Survivin-Borealin(R17E, R19E, K20E) complex (from UniProt Q9NQS7 1-58; O15392 1-142; Q53HL2 1-280)”, the pKd was 5.38.
